Source: patent US20110243941A1 (published 2011)

Tests used:
[1] = molecular target: T1, FcγRIIIA 158V (human, UniProt P08637 17-208, limits assumed); test: BIAcore, ch4-4-20
T1 construct: valine at 158; also called 3aV158; CD16A 158V

[2] = molecular target: T2, soluble dimeric FcγRIIB-Fc fusion protein (human, UniProt P31994 43-217); test: ELISA
T2 construct: extracellular domain; also called FcRIIB-Fc; FcγRIIB-G2; not shown: hinge-CH2-CH3 domain of human IgG2
T2 sequence (looked up): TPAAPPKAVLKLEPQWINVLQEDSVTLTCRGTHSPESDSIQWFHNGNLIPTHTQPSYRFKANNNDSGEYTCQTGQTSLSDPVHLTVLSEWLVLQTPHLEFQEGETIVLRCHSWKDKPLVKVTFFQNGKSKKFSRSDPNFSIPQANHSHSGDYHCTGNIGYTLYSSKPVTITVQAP

[3] = molecular target: T2, soluble dimeric FcγRIIB-Fc fusion …; test: BIAcore

T1 sequence (P08637 17-208 F176V limits assumed): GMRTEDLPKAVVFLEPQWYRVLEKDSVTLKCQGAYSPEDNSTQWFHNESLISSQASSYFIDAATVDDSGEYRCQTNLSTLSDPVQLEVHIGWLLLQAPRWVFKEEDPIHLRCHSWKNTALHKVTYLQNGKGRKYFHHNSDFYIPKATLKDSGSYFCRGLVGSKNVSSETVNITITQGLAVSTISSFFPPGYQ

Binder	Koff WT/Mut [1]	ELISA, OD [2] [OD]	Kd [3] [nM]	koff [3] [s⁻¹]
ch 4-4-20 E293V, Q295E, A327T (antibody) EPKSCDKTHTCPPCPAPELLGGPSVFLFPPKPKDTLMISRTPEVTCVVVDVSHEDPEVKFNWYVDGVEVHNAKTKPRVEEYNSTYRVVSVLTVLHQDWLNGKEYKCKVSNKTLPAPIEKTISKAKGQPREPQVYTLPPSREEMTKNQVSLTCLVKGFYPSDIAVEWESNGQPENNYKTTPPVLDSDGSFFLYSKLTVDKSRWQQGNVFSCSVMHEALHNHYTQKSLSLSPGK	0.86	–	–	–
ch 4-4-20 Y319F, P352L, P396L (antibody) EPKSCDKTHTCPPCPAPELLGGPSVFLFPPKPKDTLMISRTPEVTCVVVDVSHEDPEVKFNWYVDGVEVHNAKTKPREEQYNSTYRVVSVLTVLHQDWLNGKEFKCKVSNKALPAPIEKTISKAKGQPREPQVYTLLPSREEMTKNQVSLTCLVKGFYPSDIAVEWESNGQPENNYKTTPLVLDSDGSFFLYSKLTVDKSRWQQGNVFSCSVMHEALHNHYTQKSLSLSPGK	1.23	–	–	–
chimeric 4-4-20 anti-fluorescein antibody, wild type Fc (antibody) chain 1: not shown chain 2: DVVMTQTPLSLPVSLGDQASISCRSSQSLVHSNGNTYLRWYLQKPGQSPKVLIYKVSNRFSGVPDRFSGSGSGTDFTLKISRVEAEDLGVYFCSQSTHVPWTFGGGTKLEIKRTVAAPSVFIFPPSDEQLKSGTASVVCLLNNFYPREAKVQWKVDNALQSGNSQESVTEQDSKDSTYSLSSTLTLSKADYEKHKVYACEVTHQGLSSPVTKSFNRGEC	–	0.4	61.4	0.085
